Reference: US20250388666A1 (BRIGHAM AND WOMEN S HOSPITAL, published 2025)

T1: CEACAM1 (Sino Biological) (human, UniProt P13688 35-428, limits assumed)
T1 construct: may be the same as CEACAM1-HIS; also called hCEACAM1; biotinylated soluble CEACAM1
T1 sequence: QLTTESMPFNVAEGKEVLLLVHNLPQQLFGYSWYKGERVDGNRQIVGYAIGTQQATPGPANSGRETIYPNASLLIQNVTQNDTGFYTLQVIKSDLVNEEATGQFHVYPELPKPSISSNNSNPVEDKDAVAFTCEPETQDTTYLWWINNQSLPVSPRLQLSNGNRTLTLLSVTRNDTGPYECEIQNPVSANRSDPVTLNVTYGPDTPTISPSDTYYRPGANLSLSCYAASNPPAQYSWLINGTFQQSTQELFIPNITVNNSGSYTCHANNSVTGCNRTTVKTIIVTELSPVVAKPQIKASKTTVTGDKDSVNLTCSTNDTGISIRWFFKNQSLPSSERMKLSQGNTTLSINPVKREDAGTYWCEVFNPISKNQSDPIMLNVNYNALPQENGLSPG


Target: T1, CEACAM1 (Sino Biological)
Assay: SPR single-cycle
Protocol: To assess the binding of the humanized affinity matured IgGs, single cycle kinetics analysis was performed on crude supernatants using a Biacore T200 running Biacore T200 Control Software V2.0.1 and Biacore T200 Evaluation Software V3.0 (Uppsala, Sweden). Antibodies were diluted in HBS-P+ (GE Healthcare) to a final concentration of […]. At the start of each cycle, antibodies were loaded onto Fc2, Fc3 and Fc4 of the Protein A chip (GE Healthcare). IgGs were captured at a flow rate of 10 μl/min to give an immobilization level (RL) of ˜100 RU (a level calculated to obtain an Rmax of ˜50-150 RU once the analyte is bound). The surface was then allowed to stabilize. Single cycle kinetics data was obtained with CEACAM1 as the analyte at a flow rate of […] to minimize any potential mass transfer effects. Multiple repeats with the parent (VH2 N56Q/Vκ4 S27(f)A) antibody were performed to check the stability of the surface and analyte over the kinetic cycles. The signal from the reference channel Fc1 (no antibody) was subtracted from that of Fc2, Fc3 and Fc4 to correct for differences in non-specific binding to the reference surface. A three point, two-fold dilution range from 25 nM to 100 nM CEACAM 1 without regeneration between each concentration was used. The signal from each antibody blank run (no CEACAM1) was subtracted to correct for differences in surface stability. The association phase for the three injections of increasing concentrations of CEACAM1 was monitored for 200 seconds each time and a single dissociation phase was measured for 300 seconds following the last injection of CEACAM1. Regeneration of the Protein A surface was conducted using two injections of 10 mM glycine-HCL pH 1.5 followed by a stabilization period of 240 seconds.

Binder	Kd [nM]	fold better than Parent (KD) [fold]
Parent VH/L16 (antibody, IgG4, V domains shown, IgG4 S241P, kappa) VH: EVQLLESGGGLVQPGGSLRLSCAASGFSFSDYYLYWVRQAPGKGLEWVATISVGGGQTSYADSVKGRFTISRDNSKNTLYLQMNSLRAEDTAMYYCTRGLYYGPAWFAYWGQGTLVTVSS VL: DIVMTQSPDSLAVSLGERATINCKSSQSLLNSANQKNYLAWYQQKPGQPPKLLIYFASTRESGVPDRFSGSGSGTDFTLTISSLQAEDVAVYYCQSHYPYPFTFGGGTKVEIK	61	2.62
He1/L1 (antibody, IgG4, V domains shown, IgG4 S241P, kappa) VH: EVQLLESGGGLVQPGGSLRLSCAASGFSFSDYYLYWVRQAPGKGLEWVATISVGGGQTSYADSVKGRFTISRDNSKNTLYLQMNSLRAEDTAMYYCTRGLYYGPSWFAYWGQGTLVTVSS VL: DIVMTQSPDSLAVSLGERATINCKSSQSLLNSANQKNYLAWYQQKPGQPPKLLIYFASTRESGVPDRFSGSGSGTDFTLTISSLQAEDVAVYYCQSHYPFYYTFGGGTKVEIK	568	0.97
He1/L2 (antibody, IgG4, V domains shown, IgG4 S241P, kappa) VH: EVQLLESGGGLVQPGGSLRLSCAASGFSFSDYYLYWVRQAPGKGLEWVATISVGGGQTSYADSVKGRFTISRDNSKNTLYLQMNSLRAEDTAMYYCTRGLYYGPSWFAYWGQGTLVTVSS VL: DIVMTQSPDSLAVSLGERATINCKSSQSLLNSANQKNYLAWYQQKPGQPPKLLIYFASTRESGVPDRFSGSGSGTDFTLTISSLQAEDVAVYYCQSHYPFPYTFGGGTKVEIK	487	1.13
He1/L3 (antibody, IgG4, V domains shown, IgG4 S241P, kappa) VH: EVQLLESGGGLVQPGGSLRLSCAASGFSFSDYYLYWVRQAPGKGLEWVATISVGGGQTSYADSVKGRFTISRDNSKNTLYLQMNSLRAEDTAMYYCTRGLYYGPSWFAYWGQGTLVTVSS VL: DIVMTQSPDSLAVSLGERATINCKSSQSLLNSANQKNYLAWYQQKPGQPPKLLIYFASTRESGVPDRFSGSGSGTDFTLTISSLQAEDVAVYYCQSHFPFPFTFGGGTKVEIK	263	2.1
He1/L4 #1 (antibody, IgG4, V domains shown, IgG4 S241P, kappa) VH: EVQLLESGGGLVQPGGSLRLSCAASGFSFSDYYLYWVRQAPGKGLEWVATISVGGGQTSYADSVKGRFTISRDNSKNTLYLQMNSLRAEDTAMYYCTRGLYYGPSWFAYWGQGTLVTVSS VL: DIVMTQSPDSLAVSLGERATINCKSSQSLLNSANQKNYLAWYQQKPGQPPKLLIYFASTRESGVPDRFSGSGSGTDFTLTISSLQAEDVAVYYCQSHFPYYYTFGGGTKVEIK	429	1.28
He1/L4#2 (antibody, IgG4, V domains shown, IgG4 S241P, kappa) VH: EVQLLESGGGLVQPGGSLRLSCAASGFSFSDYYLYWVRQAPGKGLEWVATISVGGGQTSYADSVKGRFTISRDNSKNTLYLQMNSLRAEDTAMYYCTRGLYYGPSWFAYWGQGTLVTVSS VL: DIVMTQSPDSLAVSLGERATINCKSSQSLLNSANQKNYLAWYQQKPGQPPKLLIYFASTRESGVPDRFSGSGSGTDFTLTISSLQAEDVAVYYCQSHYPYPYTFGGGTKVEIK	301	1.83
He1/L5 (antibody, IgG4, V domains shown, IgG4 S241P, kappa) VH: EVQLLESGGGLVQPGGSLRLSCAASGFSFSDYYLYWVRQAPGKGLEWVATISVGGGQTSYADSVKGRFTISRDNSKNTLYLQMNSLRAEDTAMYYCTRGLYYGPSWFAYWGQGTLVTVSS VL: DIVMTQSPDSLAVSLGERATINCKSSQSLLNSANQKNYLAWYQQKPGQPPKLLIYFASTRESGVPDRFSGSGSGTDFTLTISSLQAEDVAVYYCQSHYPFAFTFGGGTKVEIK	307	1.8
He1/L6 (antibody, IgG4, V domains shown, IgG4 S241P, kappa) VH: EVQLLESGGGLVQPGGSLRLSCAASGFSFSDYYLYWVRQAPGKGLEWVATISVGGGQTSYADSVKGRFTISRDNSKNTLYLQMNSLRAEDTAMYYCTRGLYYGPSWFAYWGQGTLVTVSS VL: DIVMTQSPDSLAVSLGERATINCKSSQSLLNSANQKNYLAWYQQKPGQPPKLLIYFASTRESGVPDRFSGSGSGTDFTLTISSLQAEDVAVYYCQSHYPFSFTFGGGTKVEIK	402	1.37
He1/L16 (antibody, IgG4, V domains shown, IgG4 S241P, kappa) VH: EVQLLESGGGLVQPGGSLRLSCAASGFSFSDYYLYWVRQAPGKGLEWVATISVGGGQTSYADSVKGRFTISRDNSKNTLYLQMNSLRAEDTAMYYCTRGLYYGPSWFAYWGQGTLVTVSS VL: DIVMTQSPDSLAVSLGERATINCKSSQSLLNSANQKNYLAWYQQKPGQPPKLLIYFASTRESGVPDRFSGSGSGTDFTLTISSLQAEDVAVYYCQSHYPYPFTFGGGTKVEIK	341	1.62
He1/L17 (antibody, IgG4, V domains shown, IgG4 S241P, kappa) VH: EVQLLESGGGLVQPGGSLRLSCAASGFSFSDYYLYWVRQAPGKGLEWVATISVGGGQTSYADSVKGRFTISRDNSKNTLYLQMNSLRAEDTAMYYCTRGLYYGPSWFAYWGQGTLVTVSS VL: DIVMTQSPDSLAVSLGERATINCKSSQSLLNSANQKNYLAWYQQKPGQPPKLLIYFASTRESGVPDRFSGSGSGTDFTLTISSLQAEDVAVYYCQSHYPYPYTFGGGTKVEIK	374	1.47
He1/L18 (antibody, IgG4, V domains shown, IgG4 S241P, kappa) VH: EVQLLESGGGLVQPGGSLRLSCAASGFSFSDYYLYWVRQAPGKGLEWVATISVGGGQTSYADSVKGRFTISRDNSKNTLYLQMNSLRAEDTAMYYCTRGLYYGPSWFAYWGQGTLVTVSS VL: DIVMTQSPDSLAVSLGERATINCKSSQSLLNSANQKNYLAWYQQKPGQPPKLLIYFASTRESGVPDRFSGSGSGTDFTLTISSLQAEDVAVYYCQSHFPYPFTFGGGTKVEIK	326	1.69
He1/L19 (antibody, IgG4, V domains shown, IgG4 S241P, kappa) VH: EVQLLESGGGLVQPGGSLRLSCAASGFSFSDYYLYWVRQAPGKGLEWVATISVGGGQTSYADSVKGRFTISRDNSKNTLYLQMNSLRAEDTAMYYCTRGLYYGPSWFAYWGQGTLVTVSS VL: DIVMTQSPDSLAVSLGERATINCKSSQSLLNSANQKNYLAWYQQKPGQPPKLLIYFASTRESGVPDRFSGSGSGTDFTLTISSLQAEDVAVYYCQSHIYPNFTFGGGTKVEIK	996	0.55
He1/L20 (antibody, IgG4, V domains shown, IgG4 S241P, kappa) VH: EVQLLESGGGLVQPGGSLRLSCAASGFSFSDYYLYWVRQAPGKGLEWVATISVGGGQTSYADSVKGRFTISRDNSKNTLYLQMNSLRAEDTAMYYCTRGLYYGPSWFAYWGQGTLVTVSS VL: DIVMTQSPDSLAVSLGERATINCKSSQSLLNSANQKNYLAWYQQKPGQPPKLLIYFASTRESGVPDRFSGSGSGTDFTLTISSLQAEDVAVYYCQSHFPYPLTFGGGTKVEIK	264	2.09
He1/Parent VL (antibody, IgG4, V domains shown, IgG4 S241P, kappa) VH: EVQLLESGGGLVQPGGSLRLSCAASGFSFSDYYLYWVRQAPGKGLEWVATISVGGGQTSYADSVKGRFTISRDNSKNTLYLQMNSLRAEDTAMYYCTRGLYYGPSWFAYWGQGTLVTVSS VL: not shown	544	1.01
He3/L1 (antibody, IgG4, V domains shown, IgG4 S241P, kappa) VH: EVQLLESGGGLVQPGGSLRLSCAASGFSFSDYYLYWVRQAPGKGLEWVATISVGGGQTSYADSVKGRFTISRDNSKNTLYLQMNSLRAEDTAMYYCTRALTYGPAWLAYWGQGTLVTVSS VL: DIVMTQSPDSLAVSLGERATINCKSSQSLLNSANQKNYLAWYQQKPGQPPKLLIYFASTRESGVPDRFSGSGSGTDFTLTISSLQAEDVAVYYCQSHYPFYYTFGGGTKVEIK	62	2.57
He3/L2 (antibody, IgG4, V domains shown, IgG4 S241P, kappa) VH: EVQLLESGGGLVQPGGSLRLSCAASGFSFSDYYLYWVRQAPGKGLEWVATISVGGGQTSYADSVKGRFTISRDNSKNTLYLQMNSLRAEDTAMYYCTRALTYGPAWLAYWGQGTLVTVSS VL: DIVMTQSPDSLAVSLGERATINCKSSQSLLNSANQKNYLAWYQQKPGQPPKLLIYFASTRESGVPDRFSGSGSGTDFTLTISSLQAEDVAVYYCQSHYPFPYTFGGGTKVEIK	86	1.85
He3/L3 (antibody, IgG4, V domains shown, IgG4 S241P, kappa) VH: EVQLLESGGGLVQPGGSLRLSCAASGFSFSDYYLYWVRQAPGKGLEWVATISVGGGQTSYADSVKGRFTISRDNSKNTLYLQMNSLRAEDTAMYYCTRALTYGPAWLAYWGQGTLVTVSS VL: DIVMTQSPDSLAVSLGERATINCKSSQSLLNSANQKNYLAWYQQKPGQPPKLLIYFASTRESGVPDRFSGSGSGTDFTLTISSLQAEDVAVYYCQSHFPFPFTFGGGTKVEIK	163	0.98
